Broadly, the stoichiometry N is the number of molecules, sites or subunits per partner or assembly.

One protein from paper PMC12333349, “Endogenous Aquaporin‑0 Lipid Binding in Ocular Lens Tissue via Native Mass Spectrometry” (Journal of the American Society for Mass Spectrometry, 2025) can be followed below.

This series concerns the molecule itself. In words: native MS; crude bovine lens cortex or nucleus membrane preparation, solubilised in 1% OG, exchanged into 200 mM ammonium acetate, 2x CMC C8E4; static nanospray, Q Exactive UHMR; HCD at 200 V fragmented the tetramer mainly into monomers.

B1: Aquaporin-0 (natural protein, bovine, UniProt P06624 1-263, looked up)
chain: MWELRSASFWRAICAEFFASLFYVFFGLGASLRWAPGPLHVLQVALAFGLALATLVQAVGHISGAHVNPAVTFAFLVGSQMSLLRAICYMVAQLLGAVAGAAVLYSVTPPAVRGNLALNTLHPGVSVGQATIVEIFLTLQFVLCIFATYDERRNGRLGSVALAVGFSLTLGHLFGMYYTGAGMNPARSFAPAILTRNFTNHWVYWVGPVIGAGLGSLLYDFLLFPRLKSVSERLSILKGSRPSESNGQPEVTGEPVELKTQAL
notes: Aquaporin-0 (AQP0), bovine lens; the most abundant species is full-length AQP0, tetramer average mass 112,898 Da; Lower-abundance singly and doubly phosphorylated tetramers were also detected; Samples were in 200 mM ammonium acetate with 2x CMC C8E4 (residual OG possible); also called AQP0; crude AQP0; source: endogenous, bovine lens cortex and nucleus: crude urea-washed membrane pellets …
As for B1, the “stoichiometry N” value was determined as 4.
